Data: US20240174754A1 (ABCURO, published 2024)

How the values were obtained:
[1] = target: T1, full length human KLRG1 expressed on CHOK1 cells (CHOK1-hKLRG1) (human, UniProt Q96E93 1-195); assay: FACS competition on CHOK1-hKLRG1 cells; inhibition of E-cadherin-ECD-FC-biotin (0.3 uM) binding (Example 7)
T1 construct: whole, on cells; also called killer cell lectin-like receptor G1
T1 sequence (looked up): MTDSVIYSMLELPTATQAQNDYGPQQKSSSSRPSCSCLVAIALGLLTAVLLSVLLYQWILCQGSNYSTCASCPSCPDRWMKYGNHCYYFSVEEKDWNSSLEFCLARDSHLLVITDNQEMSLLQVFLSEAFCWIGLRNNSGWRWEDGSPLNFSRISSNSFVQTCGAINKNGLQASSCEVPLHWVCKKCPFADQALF
Description: (§1) CHOK1-hKLRG1 expressing cells were cultured and incubated with varying concentrations of PA015, HG1N01, HG1N02 or control human IgG1. Recombinant human E-cadherin-ECD-FC-biotin at 0.3 μM was then added and incubated. Cells were centrifuged, the supernatant discarded, and washed with an incubation buffer (HBSS+2% FBS+10 mM Ca2+). Cells were resuspended and incubated with Streptavidin-Alexa 488, washed, resuspended, and underwent FACS study.

[2] = target: T1, full length human KLRG1 expressed on …; assay: FACS on CHOK1-hKLRG1 cells, anti-human IgG-Alexa 488 detection
Description: Binding of anti-KLRG1 monoclonal antibodies to cell expressed human and cynomolgus-KLRG1 is carried out by FACS. Chinese hamster ovary (CHO) cells are stably transfected to express full length human KLRG1 (CHOK1-hKLRG1)). CHOK1-hKLRG1 expressing cells were cultured and incubated with varying concentrations of either PA015 or control human IgG1. Cells were then centrifuged, the supernatant discarded, and washed with an incubation buffer (HBSS+2% FBS+10 mM Ca2+). Cells were resuspended and incubated with anti-human IgG-Alexa 488, washed, resuspended, and underwent FACS study.

[3] = target: T1, full length human KLRG1 expressed on …; assay: FACS competition on CHOK1-hKLRG1 cells; inhibition of E-cadherin-ECD-FC-biotin (0.3 uM) binding
Description: The ability of monoclonal antibodies to inhibit E-cadherin/KLRG1 binding is measured by FACS.
as §1, with “concentrations of either PA015 or control” for “concentrations of PA015, HG1N01, HG1N02 or control”, “Cells were then centrifuged, the” for “Cells were centrifuged, the”

B1: PA015 (antibody, human IgG1, kappa, V domains shown)
VH: QVTLRESGPALVKPTQTLTLTCTVSGFSLSTFGMGVGWIRQPPGKALEWLAHIWWDDDKWYELALKSRLTISKDTSKNQVVLTITNMDPVDTATYYCARVIYYGSRSAYYSMDYWGQGTTVTVSS
VL: DVVMTQTPLSLSVTPGQPASISCKSSQSIVHSNAHTYLEWYLQKPGQSPQLLIYKVSNRFSGVPDRFSGSGSGTDFTLKISRVEAEDVGVYYCFQGSHVPVTFGQGTKLEIKR
notes: also called PA015 antibody; anti-KLRG1 antibody PA015
[1]
  IC50: 5.3 nM
[2]
  EC50: 1.33 nM
[3]
  IC50: 8.05 nM
